This passage reports response results from article PMC11220742.

For assay [1], the target named is HLA-A*2601 H chain (extracellular domain) refolded with human β2-microglobulin. The experiment in a line: in vitro refolding, gel filtration. As to conditions: parent: est. 300; read off a plot. (In general: Size exclusion chromatography separates by hydrodynamic size, large species first.)
Assay [2] deals with HLA-A*0101 H chain (extracellular domain) refolded with human β2-microglobulin. The experiment in a line: in vitro refolding, gel filtration. As to conditions: parent: est. 230; read off a plot.

With EVF peptide (SARS-CoV-2 S 340–351) E1A, in assay [1], the response turned out to be 290 mAU.

For the substance EVF peptide (SARS-CoV-2 S 340–351) E1R, the response in assay [1] came out at 100 mAU.

With EVF peptide (SARS-CoV-2 S 340–351) F3D, the response in assay [2] came to 330 mAU.
